# Laboratory results as given in patent US20120107932A1 (published 2012).
# Molecular target: PRRS virus (PRRSV)
# Test: cell-based or functional assay
row,Binder,"CPE caused by PRRSV on Marc-145 and PAM cells, blocker at 1 µg/well ('++' means CPE in 50% cells) [% cells with CPE]"
1,GAGDGSDEE [NMHC II-A artificial polypeptide (Seq ID No: 2)],50
2,GAGDGSDEEVDGKA [NMHC II-A artificial polypeptide (Seq ID No: 3)],50
3,KADGAEAKPAE [NMHC II-A artificial polypeptide (Seq ID No: 4)],50
